Measured values as given in the NTF2 design screens of Basanta et al. (2020).

Experiment: protease stability score; higher = more stable; yeast display proteolysis, trypsin and chymotrypsin;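 also: relative to predicted unfolded state with 0 unfolded-like and 1 meaning tenfold more protease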
“SELEEILKIARRFFEIVMRTGDPRDIERLLDPNAKLIIDGQEIHGREKMSNTFEEMVRRYDVVKSIEDKDWKIVNGRVDLDITLNGRVDGKDISTRVIIHVEKINGRWFMREVNIE” showed a protease stability score of 2.14. Sequence “DEEEENSRRAIEIVLQHMETGDEKTLEELVDPHVKLHYGDKTSHGRHHVAHLIMRLGVKHSRVEHVDSQGDKVFFFTRMRIGDKHFDTRVILLKVDGKWQIHELKFD” has a protease stability score of 1.96. In the case of “SEDEEQMKRFLDHWIHFLQTGDEEESNKLADPHTRMEIGDFELHGREEYRKWFRHIIERVDHTDVRTKDSDIVNGVAIHDIEIHIEVGDKRIRRKSEMVVLKVDGRWYIQRMHFI”, the protease stability score is reported as 0.846. For “SDEEKFFEKLLRDILHLWLTGDEDTFHQLLDPNMRSDVDGVDLHGRETVAKFLKERLKHLGIDHVQLESETAIGDKFFINTTISINGVETKMHLHFRVVNGVVHSLEVKVR”, the protease stability score was 1.26. “DEDKQWIEEFIELHLRELETGDEQRVDENLDPNVKLRINGKEVHGRERISHLLKELLRKVKNLKVELHDIRVQGDFLEIEGTLRIGDKELDLYVIAHKVNGKWIVKERRIH” gave a protease stability score of 1.23. “REDEELVKQVVKDFDHAVETGDEDRLRELLDPDVRISQGDKEFHGREDYELHLRQWRYENHRVHDVRIYGDKARIHGHLHLKIGDKHLEVETILILHKVNGRWRVRHLEIR” showed a protease stability score of 1.83. With “DEDERAIHVMLKLVKKAMDTGNEHMETELLDPNVRLDVNGRDVHGREEMRKFLNHHWKEWGVDRIIFLFESIHFQGDKVHIRGYVHINGKDFDVEFIASKVNGRWLVESRHLR” the protease stability score was 1.03. For “SENHRNLLEWARIALEALITGDWKMLLDLLDPNVRFIFNGVHLHGMEHVFHRMTREIKEIRIKFEVHDMRSIGEKVEMDTRRHVEVNGVETTIDTRVHVVVIDGVIHEIRIEHR”, the protease stability score was 1.1. “HEERDLAMHVIKRFIDSTVTGNEQDLTKLLDPHVRIEQGEYHDHGWKYAQLMIERFRNVRIELRIHFIRVQGDKVQVDIDWEVHIGDKVISSRLEMYIIKVNGVWLIRYVIFE” showed a protease stability score of 0.854. In the case of “SEDHDLVREVARLYIDAVKTGDEDLIRFLFDPHVRSEINGVQLHGWEEVFRFWQELRVHHIDLHSVHVEFQGDKAINRNEVHYNGEYGDKRNRYRLDLRIILHKIDGRWIVEEVHLITD”, the protease stability score is reported as 1.45. For “SEDIDIAREMADIIIKYWETGDEDNVRQLMDPNVKFHIGDKVNIGREWMLEFVRHWKEHARMHLKVEDFRIVGDKIHVDTRIELNVNGREMHIDLHIHLRIVNGRLKSSHIEHR”, the protease stability score was 1.19. For “TEEEELLTRLARQILRWLLTGDEDKHSRMLDPRDRSVIGDKESVGMEESVKNWRIWLEEMRLKHVQLRDVRIVDGVVHLDIHLFGHINGVHIDRESRMDVYIVNGRIHRIRIIEH”, the protease stability score was 1.3. For “REDEKFRDYATHWLEKYVRTGDENLMEELIDPDVRVHVNGQENHGMDEMRKWMLELRIEHIIIRRIEIHVYDGVIEINIDSETRVNFNGRKIRTKVHIHTETRKIDGRWSISHLELRFK”, the protease stability score was 1.07. In the case of “DEEEKMDELLIKIWLKVNETGDEDTFSKLLDPDAKVIVGDKVLHGREEIEELMRQLRVDRIHVRRHKAVNGQIHQDWELRGTVNGREIRTETRVHTIKVNGQWVIHRLKIE”, the protease stability score is reported as 1.49. Sequence “HEEEHHMRELFKRFWHLFETGDWDKLAKNADPNVRSDINGVDRHGREEVIHELKRIWDELGIDHLELKEVHIQGNKVHSDGKLVYNGVSRKTHIELIVYNGVLKRMSIEIH” has a protease stability score of 1.38. Work on “DEDEHLLEMALKYFLRHWKTGDEEMIMHLADPNVRLVVGDKKHHGREELFRFVHEMGANHIEVRDSELQGNKLILHLEVNVGDKRHDIKVVIEKIDGRWHLHSLEHR” yielded a protease stability score of 1.65. With “DEERKETEEATRQDIHDFRTGDEKSFDEFFDPNVRLDINGVRVHGRELASKWFRDFFRELGVKHSEIEHREIQGEKAIVNEDVRVGDKRVEVILVYLKINGRWEITTVTLRHE” the protease stability score was 1.05. With “DEEDNMMREIWKQLVDNQRTGDEDRLQDLIDPHVRIIINIDGRELRSHGRHELVRWLREMGVDYLDIKSYRLQGDKIETDGTLSIGDKTKEVEVRYNIIDGRTKEVEFHLR” the protease stability score was 0.167. “DEDTRDAEQFLKELLHNQITGDEESEDKLADPNVRIIINGREIHGRETWIKWRRQARITFEDQRVHSIHMIGDKLVLKIEIDGNLSFNGREIRDTVEIEIVVTKVNGRWVLDQVHFK” gave a protease stability score of 1.63. In the case of “DDYDHITELALREIERVLHTGDEEDLRRMIDPHVRIDIDGKDIHGWENLFKHIEEERRRFPNLQIDWELKDTRKQGDKIILHGQIHIQQGDKEIERDFTIKAVKINGQWIVKTFHIR”, the protease stability score is reported as 1.63.
